Source: patent US20200181251A1 (SCHOLAR ROCK, published 2020)

Target: T1, LRRC33 (Leucine-rich repeat-containing protein 33) (human, UniProt Q86YC3 19-692)
T1 construct: Endogenous LRRC33 on the surface of PMA-stimulated THP1 cells; On cells it may be complexed with proTGFb1; also called NRROS; Negative Regulator of Reactive Oxygen Species
T1 sequence: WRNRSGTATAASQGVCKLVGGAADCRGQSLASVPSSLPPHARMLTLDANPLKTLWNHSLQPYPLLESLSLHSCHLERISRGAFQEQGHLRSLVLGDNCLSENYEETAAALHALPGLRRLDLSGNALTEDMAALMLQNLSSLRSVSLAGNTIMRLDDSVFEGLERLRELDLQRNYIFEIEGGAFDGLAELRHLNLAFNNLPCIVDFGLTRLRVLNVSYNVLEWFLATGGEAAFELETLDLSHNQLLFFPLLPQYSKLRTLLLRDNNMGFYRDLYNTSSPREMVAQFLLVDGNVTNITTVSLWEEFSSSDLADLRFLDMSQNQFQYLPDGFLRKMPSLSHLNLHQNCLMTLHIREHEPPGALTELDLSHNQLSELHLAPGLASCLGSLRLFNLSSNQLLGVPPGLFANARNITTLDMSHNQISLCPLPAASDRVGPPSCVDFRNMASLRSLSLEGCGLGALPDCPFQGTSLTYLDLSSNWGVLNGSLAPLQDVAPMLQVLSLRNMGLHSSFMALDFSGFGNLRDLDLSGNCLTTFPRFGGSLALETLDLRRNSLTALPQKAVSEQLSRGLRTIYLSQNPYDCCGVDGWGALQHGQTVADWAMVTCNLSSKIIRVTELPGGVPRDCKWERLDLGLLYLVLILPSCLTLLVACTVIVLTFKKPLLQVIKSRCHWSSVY
Assay: staining of PMA-stimulated THP1 cells with 10 ug/mL antibody, detected with fluorophore conjugated secondary antibody (internalization assay)
Experimental: FIG. 15 provides results from an internalization study. THP1 cells were stimulated overnight with PMA to induce LRRC33 surface expression and adherence to tissue culture plastic. The next day, cells were stained with antibodies at 10 ug/mL for 1 hour. A subset of cells were washed and moved to cell culture media and to 37° C. for 1 hour or two hours, while another subset (time 0) were immediately fixed. Another subset of cells were washed and kept at 4° C. Internalization was detected by using fluorophore conjugated secondary antibodies against the primary antibody isotypes. Gemtuzumab and SRL1, a human specific mouse antibody against LRRC33, internalize similarly.

B1: SRL1 (antibody, V domains shown)
VH: EVQLQQSGTVLARPGASVKMSCKASGYTFTYYWMQWVKQRPGQGLEWIGAIYPGNSDTTYNQKFKGKAKLTAVTSTSTAYMELSSLTNEDSAVYYCTNTNWEAMDYWGQGTSVTVSS
VL: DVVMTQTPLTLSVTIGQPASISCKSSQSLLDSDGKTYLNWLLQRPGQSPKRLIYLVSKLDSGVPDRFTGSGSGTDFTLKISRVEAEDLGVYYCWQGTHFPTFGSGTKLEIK
notes: also called LRRC33 antibody SRL1
- binding result: binds
